B1: Type IV secretion system protein virB8 (Brucella suis biovar 1 (strain 1330)), Q7CEG3 (parent)
chain: MFGRKQSPQKSVKNGQGNAPSVYDEALNWEAAHVRLVEKSERRAWKIAGAFGTITVLLGIGIAGMLPLKQHVPYLVRVNAQTGAPDILTSLDEKSVSYDTVMDKYWLSQYVIARETYDWYTLQKDYETVGMLSSPSEGQSYASQFQGDKALDKQYGSNVRTSVTIVSIVPNGKGIGTVRFAKTTKRTNETGDGETTHWIATIGYQYVNPSLMSESARLTNPLGFNVTSYRVDPEMGVVQ
partner: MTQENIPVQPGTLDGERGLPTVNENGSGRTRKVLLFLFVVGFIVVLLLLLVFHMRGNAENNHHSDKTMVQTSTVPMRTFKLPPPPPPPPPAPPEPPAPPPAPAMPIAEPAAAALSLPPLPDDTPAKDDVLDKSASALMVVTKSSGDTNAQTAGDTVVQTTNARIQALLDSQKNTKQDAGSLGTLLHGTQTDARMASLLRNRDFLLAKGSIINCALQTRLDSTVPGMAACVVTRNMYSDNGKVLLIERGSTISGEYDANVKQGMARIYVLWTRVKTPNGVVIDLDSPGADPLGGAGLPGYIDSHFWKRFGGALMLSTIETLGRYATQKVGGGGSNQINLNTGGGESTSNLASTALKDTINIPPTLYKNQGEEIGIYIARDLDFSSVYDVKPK

The variants in this experiment derive from B1. Conditions: with virba_brusu virB10, Q9RPX5.
With T201A, the “effect of a mutation on the interaction” value is “decreasing interaction strength”.

On to T201Y, for which the “effect of a mutation on the interaction” value was “decreasing interaction strength”.

Source of the values: IntAct's records for PubMed 16648257.
